The text below walks through data of patent US20180200331A1, “BST-2 AS A THERAPEUTIC TARGET AND DIAGNOSTIC MARKER FOR BREAST CANCER GROWTH AND METASTASIS” (University of Iowa Research Foundation, priority 2015, published 2018).

One assay concerns BST-2. Nature of the assay: Adhesion of cancer cells to plates coated with recombinant BST-2. Format: cell-based. Conditions: plates coated with 0, 20 or 50 ng rBST-2. How it is done:
(§1) FIG. 22. […] PKH67Green-labeled shControl (shCTL)- or sh413 (shBST-2)-expressing (A) 4T1 or (B) E0771 cells were allowed to adhere to plates that were coated with 0, 20 or 50 ng of recombinant BST-2 (rBST-2) and fluorescence assessed with a plate reader. (C) Representative confocal images of cells attached to wells coated with increasing concentrations of rBST-2. (D) Quantification of PKH67Green-labeled MCF-7 cells expressing Vector, WT or C3A BST-2 adhered to plates that were coated with 0, 20 or 50 ng of rBST-2. […] Cells that adhered to WT MCF-7 monolayers were quantified and represented as relative fluorescence intensity. Each data point corresponds to six different wells analyzed. Error bars correspond to SEM. Significance was taken at P<0.05* and P<0.01**. n.s=not significant.
Low BST-2 expressing human breast cancer cells (MCF-7) stably expressing WT BST-2 (WT) efficiently binds BST-2 ECD while similar cells stably expressing dimerization mutant BST-2 (C3A) are defective in binding BST-2 ECD. Treatment of BST-2-expressing breast cancer cells with BST-2 ECD blocks cancer cell-to-cancer clustering (FIG. 22).

The test system of the next assay is MCF-7 cells. Nature of the assay: Adhesion to MCF-7 WT monolayers blocked with rBST-2. The format is cell-based, human. How it is done:
as §1

B1: rBST-2: recombinant extracellular domain (ECD) of BST-2 (protein, UniProt Q10589 49-161, looked up)
extracellular domain: NSEACRDGLRAVMECRNVTHLLQQELTEAQKGFQDVEAQAATCNHTVMALMASLDAEKAQGQKKVEELEGEITTLNHKLQDASAEVERLRRENQVLSVRIADKKYYPSSQDSS
modifications: extracellular domain
For B1, in the assay with BST-2, the “binding to BST-2” value is “binds to BST-2 in vitro”. The “BST-2-mediated adhesion of breast cancer cells” value with MCF-7 cells is on record as “prevents BST-2-mediated adhesion of breast cancer cells”.
